Laboratory results reported in paper PMC7954794, “Protein context shapes the specificity of SH3 domain-mediated interactions in vivo” (Nature Communications, 2021).

system: 575 putative partners (preys) of 22 WT SH3-containing proteins; assay: DHFR-PCA on solid medium, WT and SH3-deleted baits (Fig. 1B); type: cell-based, Saccharomyces cerevisiae; details: number of PPIs; SH3 domain in its own protein; DHFR-PCA; Fig2D,S2F
Summary of the method: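 In S. cerevisiae, 22 SH3-containing baits fused genomically to DHFR F[1,2], either WT or with each SH3 replaced via CRISPR by a poly-Gly/Ser linker, screened against 575 DHFR F[3] preys plus 40 negative controls in 1536 arrays, preys duplicated at randomized positions.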

Row | Molecule | SH3-dependent PPIs
1 | PEX13 (protein, UniProt P80667 1-386, looked up) Peroxisomal membrane protein …: MSSTAVPRPKPWETSASLEEPQRNAQSLSAMMTSNQQDSRPTEESNNSNSASESAPEVLPRPAALNSSGTYGESNTIPGIYGNSNYGIPYDNNPYSMNSIYGNSIGRYGYGGSYYGNNYGSFYGGGYGAGAGYGMNNGSGLGESTKATFQLIESLIGAVTGFAQMLESTYMATHNSFFTMISVAEQFGNLKEMLGSFFGIFAIMKFLKKILYRATKGRLGIPPKNFAESEGSKNKLIEDFQKFNDSGTINSNEKATRRKISWKPLLFFLMAVFGFPYLLNKFITKLQTSGTIRASQGNGSEPIDPSKLEFARALYDFVPENPEMEVALKKGDLMAILSKKDPLGRDSDWWKVRTKNGNIGYIPYNYIEIIKRRKKIEHVDDETRTH | 1
2 | BOI1 (protein, UniProt P38041 1-980, looked up) BEM1-interacting protein 1: MSLEGNTLGKGAKSFPLYIAVNQYSKRMEDELNMKPGDKIKVITDDGEYNDGWYYGRNLRTKEEGLYPAVFTKRIAIEKPENLHKSPTQESGNSGVKYGNLNDSASNIGKVSSHQQENRYTSLKSTMSDIDKALEELRSGSVEQEVSKSPTRVPEVSTPQLQDEQTLIQEKTRNEENTTHDSLFSSTADLNLSSESLKNISKSNISTKSLEPSSESVRQLDLKMAKSWSPEEVTDYFSLVGFDQSTCNKFKEHQVSGKILLELELEHLKELEINSFGIRFQIFKEIRNIKSAIDSSSNKLDADYSTFAFENQAAQLMPAATVNRDEIQQQISSKCNKLSSESSDRKSSSVTTELQRPSSVVVNPNFKLHDPAEQILDMTEVPNLFADKDIFESPGRAPKPPSYPSPVQPPQSPSFNNRYTNNNARFPPQTTYPPKNKNPTVYSNGLIPNSSTSSDNSTGKFKFPAMNGHDSNSRKTTLTSATIPSINTVNTDESLPAISNISSNATSHHPNRNSVVYNNHKRTESGSSFVDLFNRISMLSPVKSSFDEEETKQPSKASRAVFDSARRKSSYGHSRDASLSEMKKHRRNSSILSFFSSKSQSNPTSPTKQTFTIDPAKMTSHSRSQSNSYSHARSQSYSHSRKHSLVTSPLKTSLSPINSKSNIALAHSETPTSSNNKEAVSQPSEGKHKHKHKHKSKHKHKNSSSKDGSSEEKSKKKLFSSTKESFVGSKEFKRSPSELTQKSTKSILPRSNAKKQQTSAFTEGIRSITAKESMQTADCSGWMSKKGTGAMGTWKQRFFTLHGTRLSYFTNTNDEKERGLIDITAHRVLPASDDDRLISLYAASLGKGKYCFKLVPPQPGSKKGLTFTEPRVHYFAVENKSEMKAWLSAIIKATIDIDTSVPVISSYATPTIPLSKAQTLLEEARLQTQLRDAEEEEGRDQFGWDDTQNKRNSNYPIEQDQFETSDYLESSAFEYPGGRL | 3
3 | SHO1 (protein, UniProt P40073 1-367, looked up) High osmolarity signaling …: MSISSKIRPTPRKPSRMATDHSFKMKKFYADPFAISSISLAIVSWVIAIGGSISSASTNESFPRFTWWGIVYQFLIICSLMLFYCFDLVDHYRIFITTSIAVAFVYNTNSATNLVYADGPKKAAASAGVILLSIINLIWILYYGGDNASPTNRWIDSFSIKGIRPSPLENSLHRARRRGNRNTTPYQNNVYNDAIRDSGYATQFDGYPQQQPSHTNYVSSTALAGFENTQPNTSEAVNLHLNTLQQRINSASNAKETNDNSNNQTNTNIGNTFDTDFSNGNTETTMGDTLGLYSDIGDDNFIYKAKALYPYDADDDDAYEISFEQNEILQVSDIEGRWWKARRANGETGIIPSNYVQLIDGPEEMHR | 2
4 | PIN3 (protein, UniProt Q06449 2-215, looked up) [PSI+] inducibility protein 3: SASLINRSLTNIRTELDFLKGSNVISNDVYDQINKSLPAKWDPANAPRNASPASLEYVEALYQFDPQQDGDLGLKPGDKVQLLEKLSPEWYKGSCNGRTGIFPANYVKPAFSGSNGPSNLPPPPQYKAQELQQIPTQNSAASSYQQQPFPPPSTNYYQQPQQQPQQAPPPQQQQQQQQHQSSHSHLKSFGSKLGNAAIFGAGASIGSDIVNNIF | 13
